Laboratory results: a protein production outcome set (Wang et al. 2014)

Test: label from the status in PepcDB records

Row | Sequence | protein production
1 | MTDEKKVPSKPARPARKPRADKPADAKPAAVPKVAAPAVVEGSSTNAAAVKKSLRDGGMTALPSEILFAVGSIPLVVDKDALSTLAAALVASDDPSTWFVANRELIRAVVFVPQQNNVLRATPLLSVRPVASLSSVHNWQVRNHLSGLHVVVGGTGAGKSKWLNAQTPDVTIRWGEPGETFDMEESSIAVADLTEMLAVALLLATADYRVVIDSFRNLVFGITGAAGPGGVSVALYAALTSLNNICAELGVLLVAAINPMSSDDKVSLVYNNIAASVAGMTVVNNAAVVSQTIRSGTGRIFSGEPAPRNDSPVEYHEPRHTQLDEPSGPSARIRLESNNIDPDDENDNRPRRGARISL | not failed
2 | MAIEPDLGLDSTEPKLFSARLKPHRALSHNGFLILIGLVGTASFAAGLAFWLIGAWPVFGFFGLDVLALAFAFKVSFARARASEEISMTCSELRVRRTSARGEVAEWVLNPLWVRLEKIVHHDAGIERLYLVSSGRRLAIANFLGAEEKANFAKALMAALDAARRGPLYPA | failed
3 | MEGDVYSGFGERYQMDGKLLQNFQKSFVQVQDILDQNRLLINEINQNHESKQADHLGRNVGLIRELNNNIRTVASLYGDLSHSFARSVDASSEGESTGTLKSDGKANNQKRFRSG | failed
4 | MSKVLVLKSSILAGYSQSNQLSDYFVEQWREKHSADEITVRDLAANPIPVLDGELVGALRPSDAPLTTRQQEALALSDELIAELKAHDVIVIAAPMYNFNISTQLKNYFDLVARAGVTFRYTENGPEGLVTGKKAIVITSRGGIHKDGPTDLVTPYLSTFLGFIGITDVKFVFAEGIAYGPEMAAKAQSDAKAAIDSIVAA | failed
5 | MTLPAPWRVRHLPLLLLLLAAPLLALANSDPLPSWKDGPSKQGILAFVQAVTTQGSPDYVKAAERIAVFDNDGTLWSEQPAYFEVLFAFDEIKRLAPQHPEWKTRQPFQAVLEGDHQALAASGMHGLLQIIGATHTGISSEAFIDNARRWLAEARHPKTGRPFNQMIYQPMLEMLDYLRSQDFKTYIVSGGDTAFMRAFAESAYGIPPEQVIGSNFVTQWQFQDGQPSILRTAKLAHNDDGPGKPESIDGIIGRRPLLAFGNSDGDLQMLQWTAAGSGKRFMALVHHTDAAREWAYDRKSQVGRLDQALDQAQQHGWTLVDMAAEWRRIYPFEPLAPEQAQ | failed
6 | GSEEEEIPFRCFICRQAFQNPVVTKCRHYFCESCALEHFRATPRCYICDQPTGGIFNPAKELMAKLQK | not failed
7 | MEYNVQDMIFQFIGGLGIFLFGIKYMGDGLQQAAGDRLRDILDRFTTNPLMGVLAGMLVTVLIQSSSGTTALTVGLVSAGFMTLRQAIGVIMGANIGTTVTAFIIGIKIGEYALPVMAVGAILLFFFKNKKVHSVGQVVFGFGMLFFGLELMSAGMKPLRSLESFQELTVSMSDNPILGIVVGTVFTLIVQSSSATIGILQELFGQGAIDLQAALPVLFGDNIGTTITAVLAAIGTSIAARRAALVHVIFNIIGTIIFTILLIPFTSLIQYFQTSLNLNPEMTIAFAHGTFNVTNTIIQFPFIAVLAWIVTKIIRGEDAAIDFKPQHLNPIFIEQSPAIALTEAQKEIIRMAEFSLHGLKEANQFLNTQDKKHANMATQLEGAINNLDKKITEYLVLLSEKPLSPTDSEKHSVLAGVVGDIERVGDHVENLVELVDFQISNRVSLSDEALAELNEMLELTISTLQDSVEALTNFDTELAQTVIAKERKIDQMERVLRKRHVLRLNERSCSGDASIIFVDMVSNLERIGDHAVNIADGVLGEQGKINLKQSL | failed
8 | MRTLRSLMLAAALAVALAVTGFAASPLPSAYAKYAAGPTKILPLQRAFPLDELVELSELRARDRVRHARILLGGGRQSSVGGVVDFPVQGSSDPYLVGLYFTKVKLGSPPTEFNVQIDTGSDILWVTCSSCSNCPHSSGLGIDLHFFDAPGSLTAGSVTCSDPICSSVFQTTAAQCSENNQCGYSFRYGDGSGTSGYYMTDTFYFDAILGESLVANSSAPIVFGCSTYQSGDLTKSDKAVDGIFGFGKGKLSVVSQLSSRGITPPVFSHCLKGDGSGGGVFVLGEILVPGMVYSPLVPSQPHYNLNLLSIGVNGQMLPLDAAVFEASNTRGTIVDTGTTLTYLVKEAYDLFLNAISNSVSQLVTPIISNGEQCYLVSTSISDMFPSVSLNFAGGASMMLRPQDYLFHYGIYDGASMWCIGFQKAPEEQTILGDLVLKDKVFVYDLARQRIGWASYDCKCNHRVMSYRKL | failed
9 | MNFDRTFLTFLGVIMLVHLHIFFAFLSLALLVIRGAMQLNGKNWRSIKLLKILPHLSDTLLIVSGVVILYLFAFGIEWWLVAKFALLILYIVFAAKFFSKKVSQPKSIFFWLACVSFIGAMLIAYLK | failed
